Numbering of substitutions follows the chain as printed. Each block holds one binder with its values, some of them ahead of it.
Tests used:
[1] = biological target: human IgE; monoclonal antibody SE44 (human) (UniProt P01854); assay: BIAcore, antibody captured by anti-human IgG, IgE SE44 as analyte
[2] = biological target: human IgE; monoclonal antibody SE44 (human) (UniProt P01854); assay: BIAcore, antibody captured by anti-mouse IgG1, IgE SE44 as analyte

Ka [2]: 9.2e+09 M⁻¹
koff [2]: 2.6e-05 s⁻¹
kon [2]: 240000 M⁻¹ s⁻¹
B2: murine monoclonal antibody TES-C21 (antibody, V domains shown)
VH: QVQLQQSGAELMKPGASVKISCKTTGYTFSMYWLEWVKQRPGHGLEWVGEISPGTFTTNYNEKFKAKATFTADTSSNTAYLQLSGLTSEDSAVYFCARFSHFSGSNYDYFDYWGQGTSLTVSS
VL: DILLTQSPAILSVSPGERVSFSCRASQSIGTNIHWYQQRTDGSPRLLIKYASESISGIPSRFSGSGSGTEFTLNINSVESEDIADYYCQQSDSWPTTFGGGTKLEIK

Ka [1]: 4.7e+09 M⁻¹
koff [1]: 6.2e-05 s⁻¹
kon [1]: 290000 M⁻¹ s⁻¹
B3: reshaped human C21 antibody C21-H1/L3 (antibody, V domains shown)
VH: QVQLVQSGAEVKKPGASVKVSCKASGYTFSMYWLEWVKQRPGHGLEWVGEISPGTFTTNYNEKFKAKATFTADTSTNTAYMELSSLTSEDTAVYYCARFSHFSG
VL: EIVLTQSPGTLSLSPGERATLSCRASQSIGTNIHWYQQKPGQAPRLLIKYASESISGIPSRFSGSGSGTDFTLTISRLEPEDFAMYYCQQSDSWPTTFGQGTKVEIK

Ka [1]: 8.7e+09 M⁻¹
koff [1]: 3e-05 s⁻¹
kon [1]: 260000 M⁻¹ s⁻¹
B4: reshaped human C21 antibody C21-H1/L1 (antibody, V domains shown)
VH: B3 VH
VL: DILLTQSPGTLSLSPGERATLSCRASQSIGTNIHWYQQKPGQAPRLLIKYASESISGIPSRFSGSGSGTDFTLTISRLEPEDFAMYY

Ka [1]: 7.4e+09 M⁻¹
koff [1]: 3.5e-05 s⁻¹
kon [1]: 260000 M⁻¹ s⁻¹
B7: reshaped human C21 antibody C21-H3/L3 (antibody, V domains shown)
VH: B3 VH with K38R, R40A, K67R, T87R
VL: B3 VL

Ka [1]: 4.9e+09 M⁻¹
koff [1]: 5.7e-05 s⁻¹
kon [1]: 280000 M⁻¹ s⁻¹
B8: reshaped human C21 antibody C21-H1/L2 (antibody, V domains shown)
VH: B3 VH
VL: B3 VL with E1D, V3L, S60D

Ka [1]: 1.32e+10 M⁻¹
koff [1]: 1.9e-05 s⁻¹
kon [1]: 250000 M⁻¹ s⁻¹
B9: reshaped human C21 antibody C21-H3/L1 (antibody, V domains shown)
VH: B3 VH with K38R, R40A, K67R, T87R
VL: B4 VL

Continued, binder first:

B1: reshaped human C21 antibody C21-Hay3/L1 (antibody, V domains shown)
VH: QVQLVQSGAEVKKPGASVKVSCKASGYTFSMYWLEWVRQAPGQRLEWMGEISPGTFTTNYNEKFKARATFTADTSASTAYMELSSLRSEDTAVYYCARFSHFSGSNYDYFDYWGQGTLVTVSS
VL: B4 VL
Ka [1]: 6.1e+09 M⁻¹
koff [1]: 4.1e-05 s⁻¹
kon [1]: 250000 M⁻¹ s⁻¹

B5: reshaped human C21 antibody C21-Hay3/L3 (antibody, V domains shown)
VH: B1 VH
VL: B3 VL
Ka [1]: 1.6e+09 M⁻¹
koff [1]: 0.000159 s⁻¹
kon [1]: 260000 M⁻¹ s⁻¹

B6: reshaped human C21 antibody C21-Hay3/L2 (antibody, V domains shown)
VH: B1 VH
VL: B3 VL with E1D, V3L, S60D
Ka [1]: 8.1e+09 M⁻¹
koff [1]: 3.1e-05 s⁻¹
kon [1]: 250000 M⁻¹ s⁻¹

B10: reshaped human C21 antibody C21-H3/L2 (antibody, V domains shown)
VH: B3 VH with K38R, R40A, K67R, T87R
VL: B3 VL with E1D, V3L, S60D
Ka [1]: 5.7e+09 M⁻¹
koff [1]: 4.4e-05 s⁻¹
kon [1]: 250000 M⁻¹ s⁻¹

From patent US6072035
